Assays:
Assay in all cases: Kinase Profiling Assay
Format in all cases: biochemical
Conditions in all cases: 100 μM peptide
CLK3(h) = CLK3(h) (Homo sapiens, UniProt P49761)
Outline: (§1)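 MK2 inhibitory peptides were screened for specificity across a commercial panel of 266 human kinases, and each kinase activity measurement was run in duplicate.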

EphA2(h) = EphA2(h) (Homo sapiens, UniProt P29317)
Outline: as §1

PhKγ2(h) = molecular target: T1, PhKγ2(h) (Homo sapiens, UniProt P15735)
T1 sequence (P15735 1-406): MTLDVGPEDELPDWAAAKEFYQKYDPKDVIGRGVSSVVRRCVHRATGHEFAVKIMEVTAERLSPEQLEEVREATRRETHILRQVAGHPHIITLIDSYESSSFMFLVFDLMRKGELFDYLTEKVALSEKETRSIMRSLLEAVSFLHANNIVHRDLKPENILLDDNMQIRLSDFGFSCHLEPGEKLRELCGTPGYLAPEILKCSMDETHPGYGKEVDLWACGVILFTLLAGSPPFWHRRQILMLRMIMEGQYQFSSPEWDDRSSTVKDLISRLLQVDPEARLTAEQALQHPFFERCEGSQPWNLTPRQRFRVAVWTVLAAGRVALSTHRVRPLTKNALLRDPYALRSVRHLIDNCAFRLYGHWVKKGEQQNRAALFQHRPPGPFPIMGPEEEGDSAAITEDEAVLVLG
Outline: as §1

Ret(V804L)(h) = molecular target: T2, Ret(V804L)(h) (Homo sapiens, UniProt P07949, V804L)
T2 construct: purchased Millipore (IC50 Profiler Express service)
Outline: as §1

Rsk2(h) = molecular target: T3, Rsk2(h) (Homo sapiens, UniProt P51812)
T3 construct: purchased Millipore (IC50 Profiler Express service)
T3 sequence (P51812 whole entry): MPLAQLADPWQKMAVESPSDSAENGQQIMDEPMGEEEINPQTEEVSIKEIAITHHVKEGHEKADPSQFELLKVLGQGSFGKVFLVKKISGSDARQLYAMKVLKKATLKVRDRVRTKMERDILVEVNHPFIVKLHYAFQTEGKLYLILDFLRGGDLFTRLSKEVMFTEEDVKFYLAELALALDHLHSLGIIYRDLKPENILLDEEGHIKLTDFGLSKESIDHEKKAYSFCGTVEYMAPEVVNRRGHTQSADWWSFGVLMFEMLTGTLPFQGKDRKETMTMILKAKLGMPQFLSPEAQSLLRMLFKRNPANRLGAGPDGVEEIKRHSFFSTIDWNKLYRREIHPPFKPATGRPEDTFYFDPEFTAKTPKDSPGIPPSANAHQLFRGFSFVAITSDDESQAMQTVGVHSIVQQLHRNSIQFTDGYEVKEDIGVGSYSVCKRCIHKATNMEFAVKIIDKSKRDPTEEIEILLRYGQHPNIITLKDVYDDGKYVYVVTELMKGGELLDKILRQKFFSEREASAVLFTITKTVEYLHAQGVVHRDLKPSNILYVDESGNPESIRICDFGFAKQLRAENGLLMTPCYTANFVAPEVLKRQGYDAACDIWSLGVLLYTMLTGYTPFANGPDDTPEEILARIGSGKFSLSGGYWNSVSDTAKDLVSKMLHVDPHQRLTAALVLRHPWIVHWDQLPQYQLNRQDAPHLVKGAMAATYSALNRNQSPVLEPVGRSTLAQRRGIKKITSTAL
Outline: as §1

ZAP-70(h) = molecular target: T4, ZAP-70(h) (Homo sapiens, UniProt P43403)
T4 sequence (P43403 1-619): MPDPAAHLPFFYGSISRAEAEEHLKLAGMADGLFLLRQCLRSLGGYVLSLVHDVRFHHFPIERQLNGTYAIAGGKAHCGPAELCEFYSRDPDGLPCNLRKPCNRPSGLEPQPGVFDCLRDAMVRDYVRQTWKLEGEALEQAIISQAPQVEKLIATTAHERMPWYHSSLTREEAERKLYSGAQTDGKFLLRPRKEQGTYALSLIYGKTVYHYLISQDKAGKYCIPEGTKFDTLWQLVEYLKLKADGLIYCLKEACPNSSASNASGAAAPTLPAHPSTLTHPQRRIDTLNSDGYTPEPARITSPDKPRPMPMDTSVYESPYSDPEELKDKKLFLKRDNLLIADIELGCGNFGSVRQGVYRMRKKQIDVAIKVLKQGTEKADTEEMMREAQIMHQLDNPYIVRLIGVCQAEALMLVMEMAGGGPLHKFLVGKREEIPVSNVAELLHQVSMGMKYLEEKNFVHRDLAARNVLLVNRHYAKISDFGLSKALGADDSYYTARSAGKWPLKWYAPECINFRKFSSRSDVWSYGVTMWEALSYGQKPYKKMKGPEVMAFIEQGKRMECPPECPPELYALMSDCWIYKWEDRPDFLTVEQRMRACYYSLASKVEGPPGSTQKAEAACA
Outline: as §1

EphA3(h) = molecular target: T5, EphA3(h) (Homo sapiens, UniProt P29320)
T5 sequence (P29320 21-983): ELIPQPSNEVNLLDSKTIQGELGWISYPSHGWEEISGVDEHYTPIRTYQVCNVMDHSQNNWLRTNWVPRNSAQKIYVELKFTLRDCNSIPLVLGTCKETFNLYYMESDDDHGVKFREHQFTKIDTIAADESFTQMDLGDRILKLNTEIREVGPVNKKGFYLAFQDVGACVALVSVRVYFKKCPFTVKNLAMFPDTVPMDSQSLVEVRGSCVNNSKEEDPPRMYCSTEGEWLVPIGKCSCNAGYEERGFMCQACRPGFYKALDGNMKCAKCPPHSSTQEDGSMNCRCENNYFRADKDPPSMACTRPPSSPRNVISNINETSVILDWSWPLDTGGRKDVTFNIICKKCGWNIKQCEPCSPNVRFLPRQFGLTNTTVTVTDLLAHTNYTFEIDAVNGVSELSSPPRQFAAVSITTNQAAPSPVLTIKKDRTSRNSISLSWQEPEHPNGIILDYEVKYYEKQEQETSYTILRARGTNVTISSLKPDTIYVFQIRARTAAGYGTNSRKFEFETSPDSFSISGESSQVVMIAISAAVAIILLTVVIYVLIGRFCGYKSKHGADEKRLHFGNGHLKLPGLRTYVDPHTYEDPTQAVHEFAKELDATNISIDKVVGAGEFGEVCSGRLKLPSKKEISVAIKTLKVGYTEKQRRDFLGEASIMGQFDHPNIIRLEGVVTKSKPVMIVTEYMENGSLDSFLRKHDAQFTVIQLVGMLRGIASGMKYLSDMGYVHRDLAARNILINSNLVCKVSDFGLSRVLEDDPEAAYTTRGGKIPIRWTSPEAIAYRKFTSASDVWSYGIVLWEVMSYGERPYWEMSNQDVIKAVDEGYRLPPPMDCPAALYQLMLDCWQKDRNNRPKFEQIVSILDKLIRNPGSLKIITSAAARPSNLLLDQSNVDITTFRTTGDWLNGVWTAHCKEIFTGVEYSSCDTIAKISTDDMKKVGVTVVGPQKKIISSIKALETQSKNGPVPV
Outline: as §1

CLK3(h), sequence (P49761 whole entry): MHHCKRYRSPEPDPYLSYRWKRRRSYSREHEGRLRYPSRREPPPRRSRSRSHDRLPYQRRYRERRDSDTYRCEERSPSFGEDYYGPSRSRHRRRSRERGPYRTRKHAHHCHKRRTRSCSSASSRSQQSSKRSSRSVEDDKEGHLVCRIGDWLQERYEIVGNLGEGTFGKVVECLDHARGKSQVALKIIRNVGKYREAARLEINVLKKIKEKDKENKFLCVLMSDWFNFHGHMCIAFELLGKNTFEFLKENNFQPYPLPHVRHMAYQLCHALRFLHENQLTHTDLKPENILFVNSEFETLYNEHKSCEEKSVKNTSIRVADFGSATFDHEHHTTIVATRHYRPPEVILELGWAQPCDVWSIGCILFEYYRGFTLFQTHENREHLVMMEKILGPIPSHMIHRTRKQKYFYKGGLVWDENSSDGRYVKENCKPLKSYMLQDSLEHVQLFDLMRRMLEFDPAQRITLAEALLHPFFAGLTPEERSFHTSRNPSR

| Sequence | CLK3(h) % activity (CLK3(h)) | EphA2(h) % activity (EphA2(h)) | PhKγ2(h) % activity (PhKγ2(h)) | Ret(V804L)(h) % activity (Ret(V804L)(h)) | Rsk2(h) % activity (Rsk2(h)) | ZAP-70(h) % activity (ZAP-70(h)) | EphA3(h) % activity (EphA3(h)) |
| --- | --- | --- | --- | --- | --- | --- | --- |
| YARAAARQARAKALNRQLGVA (Mammalian) [MMI-0200] | 76% | 95% | 86% | 100% | 101% | 58% |  |
| HRRIKAWLKKIKALARQLGVAA (Mammalian) [MMI-0500] | 76% |  | 16% | 20% | 14% | 1% | 33% |
| KAFAKLAARLYRKALARQLGVAA [MMI-0400] | 84% | 17% | 38% | 73% | 38% | 33% | 12% |
| FAKLAARLYRKALARQLGVAA [MMI-0300] | 61% | 31% | 46% | 79% | 51% | 75% | 6% |

Reference: patent US10562947B2, “Compositions and methods for preventing or treating diseases, conditions or processes characterized by aberrant fibroblast proliferation and extracellular matrix deposition” (MOERAE MATRIX, INC., priority 2011, dated 2020)
